Data on two molecules can be found in patent US20230151085A1 (TRINOMAB BIOTECH, published 2023).

Experiment [1] has as its target T1, human neurotrophin-3 (hNT-3) (human, UniProt P20783 139-257).
T1 construct: Bought protein (Absin)
T1 sequence (looked up): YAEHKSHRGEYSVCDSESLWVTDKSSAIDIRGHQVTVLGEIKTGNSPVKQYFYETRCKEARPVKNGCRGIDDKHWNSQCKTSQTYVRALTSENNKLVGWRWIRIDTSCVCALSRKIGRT
Description: ELISA, neurotrophin coated on plate, goat anti-human IgG-HRP detection. On the procedure:
(§1) The present invention determines the cross-reactivity of antibody TRN1027 to other neurotrophins by ELISA. HBDNF, hNT-3 and hNT-4 (Absin) were used as antigens to coat the 96-well plate at […] overnight at 4° C., respectively. Then the plate was blocked with the blocking solution for 2 hours at ambient temperature. The plate was added with antibody TRN1027 with decreasing concentrations (ranging from 10 ug/ml-0 ug/ml) at 100 ul/well and incubated at 37° C. for 1 h. Antibody TRN1027 was detected by TMB with goat-anti-human IgG-HRP (1: 10000) and the substrate developer. OD values were measured at dual wavelengths of 450-630 nm.
(An ELISA detects its analyte on a solid surface through an enzyme-linked reagent.)

Experiment [2] concerns the target T2, human neurotrophin-4 (hNT-4) (human, UniProt P34130 81-210).
T2 construct: Bought protein (Absin)
T2 sequence (looked up): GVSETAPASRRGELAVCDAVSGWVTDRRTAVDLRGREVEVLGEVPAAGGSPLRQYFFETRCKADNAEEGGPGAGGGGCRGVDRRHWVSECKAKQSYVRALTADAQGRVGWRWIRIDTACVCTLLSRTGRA
The description is as above. On the procedure:
as §1

The target in experiment [3] is T3, human brain-derived neurotrophic factor (hBDNF) (human, UniProt P23560 129-247).
T3 construct: Bought protein (Absin)
T3 sequence (looked up): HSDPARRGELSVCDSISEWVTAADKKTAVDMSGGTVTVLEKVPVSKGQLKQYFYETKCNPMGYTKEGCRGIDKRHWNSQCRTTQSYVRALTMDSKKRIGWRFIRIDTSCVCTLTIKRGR
Described as above. On the procedure:
as §1

Experiment [4] deals with T4, human nerve growth factor (hNGF) (human, UniProt P01138 122-241). Nature of the experiment: cell-based or functional assay.
T4 sequence (P01138 122-241 limits assumed): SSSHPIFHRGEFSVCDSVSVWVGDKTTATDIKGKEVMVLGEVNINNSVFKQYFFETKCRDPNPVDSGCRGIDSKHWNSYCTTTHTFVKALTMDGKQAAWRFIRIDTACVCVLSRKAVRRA
Experiment [5] addresses T4, human nerve growth factor (hNGF). Nature of the experiment: SPR (BIACORE3000), antibody captured by anti-human IgG (Fc) on CM5 chip, hNGF as analyte. From the text:
The binding force between an antibody and an antigenic determinant, called antibody affinity, reflects the ability of the antibody molecule to bind to the antigenic determinant. In this example, the antigen binding affinity of antibody TRN1027 was detected using surface plasmon resonance analysis (BIACORE3000). Anti-human IgG (Fc) antibody was immobilized on the surface of CM5 sensor chip (GE) by amino-coupling method. The anti-NGF antibody was captured as a ligand, the capture level reached about 400 RU. Different concentrations of hNGF protein were passed through the detection channel as the analyte streams. The binding of antigen to antibody and dissociation of the bound complex was monitored in real-time. Kinetic analysis (calculation of dissociation constants (KD)) was performed with the Biacore X100 Evaluation Software (2.0.1).

For experiment [6] the target is unchanged. Nature of the experiment: ELISA, hNGF coated at 2 ug/mL, antibody titrated from 10 ug/mL, goat anti-human IgG-HRP. On the procedure: Antibody TRN1027 was tested for binding activity to hNGF by the ELISA assay. Specifically, 2 μg/mL of hNGF as an antigen was diluted and coated with carbonate buffer at pH 9.6 in a 96-well plate overnight at 4° C.; the plate was blocked by the blocking solution at 37° C. for 2 h. The antibody TRN1027 was serial diluted with the blocking solution, starting at 10 μg/mL, 3-fold dilution for 12 gradients; each gradient of antibody TRN1027 was then added to a 96-well plate and incubated for 1 h at 37° C. The plate was washed with the PBST buffer, added with 100 μ/well LHRP labeled goat anti-human IgG (1: 10000), and incubate at 37° C. for 1 h. The plate was washed with the PBST buffer, added with 100 μL/well TMB developing solution away from light, and placed for 5 min at 37° C. H₂SO₄ was added to stop the reaction. The detection was conducted at 450 nm wavelength. The results were calculated and analyzed.

B1: human anti-NGF antibody TRN1027 (antibody, V domains shown)
VH: QLQLQESGSGLVRPSQTLSLTCAVSGDSMNSGGYSWSWIRQPPGKGLEWIGYIYYSGSTHYNPSLESRVTLSLHRSKNQFFLQLSSVTAADTAVYYCARTLWFGEFEGFDPWGQGILVTVSS
VL: QSALTQPPSASGSPGQSVTISCTGTSSDVGGYNFVSWYQHHPGKAPKLLLYEVSKRPSGVPDRFSGSKSGNTASLTVSGLQAEDEADYFCSSFAGSNNFVFFGGGTKLTVL
For B1, the binding result in experiment [1], in experiment [2] and in experiment [3] was “no binding (tested: 10 ug/ml-0 ug/ml)” each time. Also, in experiment [4], the “EC50 of inhibition of NGF-induced proliferation of TF-1 cells (MTS)” value amounted to 3.01 ng/mL. In experiment [4], the “EC50 of neutralisation of NGF on PC-12 cells (Celltiter-Glo cell viability)” value worked out at 8.83 ng/mL. Further, the Kd in experiment [5] came to 0.0168 nM. The molecule further showed an EC50 in experiment [6] of 1.07 ng/mL.

B2: anti-NGF antibody Tanezumab (CAS No. 880266-57-9, published in CN 102746399 B, also known as E3) (antibody, V domains shown)
VH: QVQLQESGPGLVKPSETLSLTCTVSGFSLIGYDLNWIRQPPGKGLEWIGIIWGDGTTDYNSAVKSRVTISKDTSKNQFSLKLSSVTAADTAVYYCARGGYWYATSYYFDYWGQGTLVTVSS
VL: DIQMTQSPSSLSASVGDRVTITCRASQSISNNLNWYQQKPGKAPKLLIYYTSRFHSGVPSRFSGSGSGTDFTFTISSLQPEDIATYYCQQEHTLPYTFGQGTKLEIKR
For B2, in experiment [4], the “EC50 of inhibition of NGF-induced proliferation of TF-1 cells (MTS)” value turned out to be 14.3 ng/mL and the “EC50 of neutralisation of NGF on PC-12 cells (Celltiter-Glo cell viability)” value was 32.2 ng/mL. This molecule registered an EC50 in experiment [6] of 2.96 ng/mL.

What is called Kd is the concentration at which binding is half-saturated. The low end stands for higher affinity, the high end for lower affinity. As a reminder, the EC50 is the concentration that produces a half-maximal response.
